{"source": "the supplement of paper PMC10567573", "parents": {"B1": {"name": "CCDC70 (parent)", "chain": "FSFKVSRWMGLACFRSLAASSPSI"}}, "data": [{"variants_of": "B1", "test": "protein stability index of a GFP-peptide fusion (GPS, HEK-293T) (PSI 1-6); higher = more stable", "conditions": "c terminus: a fixed tail appended", "values": [{"variant": "FSFKVSRMMGLACFRSLAASSPSI", "note": "[W8M]", "protein stability index": 1.77}, {"variant": "FSFKVSRLMGLACFRSLAASSPSI", "note": "[W8L]", "protein stability index": 3.27}, {"variant": "FSFKVSRHMGLACFRSLAASSPSI", "note": "[W8H]", "protein stability index": 2.82}, {"variant": "FSFKVSRTMGLACFRSLAASSPSI", "note": "[W8T]", "protein stability index": 2.58}, {"variant": "FSFKVSRDMGLACFRSLAASSPSI", "note": "[W8D]", "protein stability index": 1.76}, {"variant": "FSFKVSRWMGLACFRQLAASSPSI", "note": "[S16Q]", "protein stability index": 2.42}, {"variant": "FSFKVSRWMGLACFRWLAASSPSI", "note": "[S16W]", "protein stability index": 2.79}, {"variant": "FSFKVSRWMGLACFRHLAASSPSI", "note": "[S16H]", "protein stability index": 3.13}, {"variant": "FSFKVSRWMGLACFRCLAASSPSI", "note": "[S16C]", "protein stability index": 2.56}, {"variant": "FSFKVSRWMGLACFRGLAASSPSI", "note": "[S16G]", "protein stability index": 3.37}, {"variant": "FSFKVSRWMGLACFRYLAASSPSI", "note": "[S16Y]", "protein stability index": 3.27}, {"variant": "FSFKVSRWMGLACFRPLAASSPSI", "note": "[S16P]", "protein stability index": 3.05}, {"variant": "FSFKVSRWMGLACFRNLAASSPSI", "note": "[S16N]", "protein stability index": 3.94}, {"variant": "FSFKVSRWMGLACFRLLAASSPSI", "note": "[S16L]", "protein stability index": 2.13}, {"variant": "FSFKVSRWMGLACFRSLAASDPSI", "note": "[S21D]", "protein stability index": 2.8}, {"variant": "FSFKVSRWMGLACFRSLAASLPSI", "note": "[S21L]", "protein stability index": 3.55}, {"variant": "FSFKVSRWMGLACFRSLAASIPSI", "note": "[S21I]", "protein stability index": 3.37}, {"variant": "FSFKVSRWMGLACFRSLAASFPSI", "note": "[S21F]", "protein stability index": 3.31}, {"variant": "FSFKVSRWMGLACFRSLAASYPSI", "note": "[S21Y]", "protein stability index": 1.82}, {"variant": "FSFKVSRWMGLACFRSLAASMPSI", "note": "[S21M]", "protein stability index": 3.02}, {"variant": "FSFKVSRWMGLACFRSLAASWPSI", "note": "[S21W]", "protein stability index": 2.85}, {"variant": "FSFKVSRWMGLACFRSLAASRPSI", "note": "[S21R]", "protein stability index": 1.75}, {"variant": "FSFKVSRWMGLACFRSLAASEPSI", "note": "[S21E]", "protein stability index": 3.18}, {"variant": "FSFKVSRWMGLACFRSLKASSPSI", "note": "[A18K]", "protein stability index": 4.48}, {"variant": "FSFKVSRWMGLACFRSLTASSPSI", "note": "[A18T]", "protein stability index": 2.82}, {"variant": "FSFKVSRWMGLACFRSLFASSPSI", "note": "[A18F]", "protein stability index": 2.74}, {"variant": "FSFKVSRWMGLACFRSLVASSPSI", "note": "[A18V]", "protein stability index": 2.58}, {"variant": "FSFKVSRWMGLACFRSLRASSPSI", "note": "[A18R]", "protein stability index": 2.21}, {"variant": "FSFKVSRWMGLACFRSLWASSPSI", "note": "[A18W]", "protein stability index": 1.96}, {"variant": "FSFNVSRWMGLACFRSLAASSPSI", "note": "[K4N]", "protein stability index": 2.51}, {"variant": "FSFIVSRWMGLACFRSLAASSPSI", "note": "[K4I]", "protein stability index": 3.39}, {"variant": "FSFMVSRWMGLACFRSLAASSPSI", "note": "[K4M]", "protein stability index": 2.34}, {"variant": "FSFSVSRWMGLACFRSLAASSPSI", "note": "[K4S]", "protein stability index": 3.25}, {"variant": "FSFAVSRWMGLACFRSLAASSPSI", "note": "[K4A]", "protein stability index": 2.38}, {"variant": "FSFGVSRWMGLACFRSLAASSPSI", "note": "[K4G]", "protein stability index": 2.99}, {"variant": "FSFRVSRWMGLACFRSLAASSPSI", "note": "[K4R]", "protein stability index": 2.22}, {"variant": "FSFTVSRWMGLACFRSLAASSPSI", "note": "[K4T]", "protein stability index": 2.38}, {"variant": "FSFHVSRWMGLACFRSLAASSPSI", "note": "[K4H]", "protein stability index": 2.73}, {"variant": "FSFKVSRWNGLACFRSLAASSPSI", "note": "[M9N]", "protein stability index": 2.15}, {"variant": "FSFKVSRWHGLACFRSLAASSPSI", "note": "[M9H]", "protein stability index": 2.8}, {"variant": "FSFKVSRWDGLACFRSLAASSPSI", "note": "[M9D]", "protein stability index": 4.03}, {"variant": "FSFKVSRWIGLACFRSLAASSPSI", "note": "[M9I]", "protein stability index": 4.43}, {"variant": "FSFKVSRWEGLACFRSLAASSPSI", "note": "[M9E]", "protein stability index": 2.5}, {"variant": "FSFKVSRWPGLACFRSLAASSPSI", "note": "[M9P]", "protein stability index": 1.36}, {"variant": "FSFKVSIWMGLACFRSLAASSPSI", "note": "[R7I]", "protein stability index": 4.23}, {"variant": "FSFKVSSWMGLACFRSLAASSPSI", "note": "[R7S]", "protein stability index": 2.14}, {"variant": "FSFKVSHWMGLACFRSLAASSPSI", "note": "[R7H]", "protein stability index": 3.25}, {"variant": "FSFKVSKWMGLACFRSLAASSPSI", "note": "[R7K]", "protein stability index": 2.3}, {"variant": "FSFKVSQWMGLACFRSLAASSPSI", "note": "[R7Q]", "protein stability index": 2.19}, {"variant": "FSFKVSVWMGLACFRSLAASSPSI", "note": "[R7V]", "protein stability index": 3.67}, {"variant": "FSFKVSFWMGLACFRSLAASSPSI", "note": "[R7F]", "protein stability index": 2.69}, {"variant": "FSFKVSAWMGLACFRSLAASSPSI", "note": "[R7A]", "protein stability index": 2.22}, {"variant": "FSFKVSRWMGLAWFRSLAASSPSI", "note": "[C13W]", "protein stability index": 2.35}, {"variant": "FSFKVSRWMGLALFRSLAASSPSI", "note": "[C13L]", "protein stability index": 3.57}, {"variant": "FSFKVSRWMGLARFRSLAASSPSI", "note": "[C13R]", "protein stability index": 3.4}, {"variant": "FSFKVSRWMGLAGFRSLAASSPSI", "note": "[C13G]", "protein stability index": 2.27}, {"variant": "FSFKVSRWMGLAHFRSLAASSPSI", "note": "[C13H]", "protein stability index": 2.36}, {"variant": "FSFKVSRWMGLAIFRSLAASSPSI", "note": "[C13I]", "protein stability index": 2.56}, {"variant": "FSFKVSRWMGLAVFRSLAASSPSI", "note": "[C13V]", "protein stability index": 2.52}, {"variant": "FSFKVSRWMGLADFRSLAASSPSI", "note": "[C13D]", "protein stability index": 2.05}, {"variant": "FSFKVSRWMGLAYFRSLAASSPSI", "note": "[C13Y]", "protein stability index": 3.24}, {"variant": "ASFKVSRWMGLACFRSLAASSPSI", "note": "[F1A]", "protein stability index": 2.36}, {"variant": "SSFKVSRWMGLACFRSLAASSPSI", "note": "[F1S]", "protein stability index": 1.38}, {"variant": "KSFKVSRWMGLACFRSLAASSPSI", "note": "[F1K]", "protein stability index": 2.46}, {"variant": "NSFKVSRWMGLACFRSLAASSPSI", "note": "[F1N]", "protein stability index": 2.35}, {"variant": "ESFKVSRWMGLACFRSLAASSPSI", "note": "[F1E]", "protein stability index": 3.1}, {"variant": "PSFKVSRWMGLACFRSLAASSPSI", "note": "[F1P]", "protein stability index": 2.2}, {"variant": "DSFKVSRWMGLACFRSLAASSPSI", "note": "[F1D]", "protein stability index": 1.25}, {"variant": "TSFKVSRWMGLACFRSLAASSPSI", "note": "[F1T]", "protein stability index": 2.53}, {"variant": "ISFKVSRWMGLACFRSLAASSPSI", "note": "[F1I]", "protein stability index": 1.68}, {"variant": "YSFKVSRWMGLACFRSLAASSPSI", "note": "[F1Y]", "protein stability index": 2.33}, {"variant": "FSFKVSRWMGLACRRSLAASSPSI", "note": "[F14R]", "protein stability index": 4.52}, {"variant": "FSFKVSRWMGLACQRSLAASSPSI", "note": "[F14Q]", "protein stability index": 1.72}, {"variant": "FSFKVSRWMGLACARSLAASSPSI", "note": "[F14A]", "protein stability index": 3.51}, {"variant": "FSFKVSRWMGLACPRSLAASSPSI", "note": "[F14P]", "protein stability index": 3.6}, {"variant": "FSFKVSRWMGLACKRSLAASSPSI", "note": "[F14K]", "protein stability index": 1.93}, {"variant": "FSFKVSRWMGLACIRSLAASSPSI", "note": "[F14I]", "protein stability index": 1.54}, {"variant": "FSFKVSRWMGLACDRSLAASSPSI", "note": "[F14D]", "protein stability index": 2.84}, {"variant": "FSFKVSRWMGLACLRSLAASSPSI", "note": "[F14L]", "protein stability index": 2}, {"variant": "FSFKVSRWMGLACNRSLAASSPSI", "note": "[F14N]", "protein stability index": 2.56}, {"variant": "FSFKVSRWMGLACFRSLAASSHSI", "note": "[P22H]", "protein stability index": 1.85}, {"variant": "FSFKVSRWMGLACFRSLAASSQSI", "note": "[P22Q]", "protein stability index": 3.8}, {"variant": "FSFKVSRWMGLACFRSLAASSCSI", "note": "[P22C]", "protein stability index": 2.36}, {"variant": "FSFKVSRWMGLACFRSLAASSASI", "note": "[P22A]", "protein stability index": 1.68}, {"variant": "FSFKVSRWMGLACFRSLAASSDSI", "note": "[P22D]", "protein stability index": 2.97}, {"variant": "FSFKVSRWMGLACFRSLAASSESI", "note": "[P22E]", "protein stability index": 3.78}, {"variant": "FSFKVSRWMGLACFRSLAASSFSI", "note": "[P22F]", "protein stability index": 2.51}, {"variant": "FSFKVSRWMGLACFRSLAASSRSI", "note": "[P22R]", "protein stability index": 2.46}, {"variant": "FSFKVSRWMGLACFRSLASSSPSI", "note": "[A19S]", "protein stability index": 3.28}, {"variant": "FSFKVSRWMGLACFRSLANSSPSI", "note": "[A19N]", "protein stability index": 3.2}, {"variant": "FSFKVSRWMGLACFRSLAGSSPSI", "note": "[A19G]", "protein stability index": 2.19}, {"variant": "FSFKVSRWMGLACFRSLARSSPSI", "note": "[A19R]", "protein stability index": 3.39}, {"variant": "FSFKVSRWMGLACFRSLAMSSPSI", "note": "[A19M]", "protein stability index": 3.27}, {"variant": "FSFKVSRWMGLACFRSLAQSSPSI", "note": "[A19Q]", "protein stability index": 2.32}]}]}
